The source of these data is patent US20240360216A1 (NOVOPROTEIN SCIENTIFIC, published 2024).

Assay [1] addresses T1, human CD3 on Jurkat cells (human CD3+ cell line) (human, UniProt P07766 23-207).
T1 construct: whole, on cells; Also used for the T cells of human PBMC in the CD69 assays; also called human CD3 positive cells; CD3 on T cells of PBMC
In words: flow cytometry on Jurkat cells, anti hFC-APC detection.

Assay [2] has as its target T2, human CD3E protein (Example 4.1) (human, UniProt P07766 23-126).
T2 construct: extracellular domain
In words: Fortebio (BLI), antibody on protein A sensor, CD3E diluted from 100 nM. For orientation: Biolayer interferometry detects binding as a change in optical thickness at a sensor tip.

Assay [3] deals with T3, monkey CD3E protein (Examples 4.2 and 7) (monkey, UniProt Q95LI5 22-117).
T3 construct: extracellular domain
T3 sequence (looked up): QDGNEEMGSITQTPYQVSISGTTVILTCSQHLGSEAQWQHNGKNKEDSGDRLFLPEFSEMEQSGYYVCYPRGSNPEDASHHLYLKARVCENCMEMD
Put plainly: ELISA on monkey CD3E.

In assay [4] the target is T3, monkey CD3E protein (Examples 4.2 and 7). In words: ELISA. A general note: An ELISA detects its analyte on a solid surface through an enzyme-linked reagent.

T2 sequence (P07766 23-126): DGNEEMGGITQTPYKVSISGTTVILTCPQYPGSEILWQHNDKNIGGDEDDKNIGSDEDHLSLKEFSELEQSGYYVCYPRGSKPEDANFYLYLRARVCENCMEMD
T1 sequence (P07766 23-207): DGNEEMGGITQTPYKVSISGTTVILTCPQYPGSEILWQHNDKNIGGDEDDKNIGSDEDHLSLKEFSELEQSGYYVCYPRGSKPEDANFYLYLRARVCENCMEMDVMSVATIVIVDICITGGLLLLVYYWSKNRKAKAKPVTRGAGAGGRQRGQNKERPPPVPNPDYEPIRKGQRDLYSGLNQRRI

B1: CD3 full-length antibody CQ54 (antibody, V domains shown)
VH: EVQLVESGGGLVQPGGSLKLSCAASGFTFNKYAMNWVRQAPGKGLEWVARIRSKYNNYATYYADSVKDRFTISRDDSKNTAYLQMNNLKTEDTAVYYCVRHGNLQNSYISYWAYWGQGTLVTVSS
VL: QTVVTQEPSLTVSPGGTVTLTCGSSTGPVTGGNYPNWVQQKPGQAPRGLIGGTKFLAPGTPARFSGSLLGGKAALTLSGVQPEDEAEYYCVLWESNRWVFGGGTKLTVLT
notes: Includes huVH5 and huVL5
As a reminder, the EC50 is the concentration giving half of the maximal effect. In general, Kd refers to the free concentration of one partner at which half of the binding sites on the other are occupied at equilibrium, for simple one-to-one binding. The koff is a measure of how fast the partners let go of each other. As a reminder, the kon is the rate constant with which the complex forms. Molecule B1 gave an EC50 in assay [1] of 0.023 mg/L. Moreover, in assay [2], the Kd stood at 0.97 nM, the koff was determined as 0.000604 s⁻¹ and the kon came out at 621000 M⁻¹ s⁻¹. The EC50 in assay [3] came to 0.375 mg/L.

B2: OKT3 antibody (control antibody) (antibody, V domains shown)
VH: not shown
VL: QIVLTQSPAIMSASPGEKVTMTCSASSSVSYMNWYQQKSGTSPKRWIYDTSKLASGVPAHFRGSGSGTSYSLTISGMEAEDAATYYCQQWSSNPFTFGSGTKLEINR
With B2, the binding result in assay [4] is recorded as “no binding”.
